Assays:
[1] = target: T1, human CD40L expressed on CHO cells (human, UniProt P29965 1-261); experiment: cell-based or functional assay
T1 sequence: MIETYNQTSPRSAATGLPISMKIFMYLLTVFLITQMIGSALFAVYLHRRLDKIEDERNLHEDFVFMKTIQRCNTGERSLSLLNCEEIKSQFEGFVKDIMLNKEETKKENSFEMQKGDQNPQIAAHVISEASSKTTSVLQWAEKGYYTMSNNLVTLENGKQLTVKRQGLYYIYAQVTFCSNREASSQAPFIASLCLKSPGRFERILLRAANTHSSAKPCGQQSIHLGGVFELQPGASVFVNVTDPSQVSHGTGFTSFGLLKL

[2] = target: T1, human CD40L expressed on CHO cells; experiment: cell-based or functional assay; remark: listed apart in the source
recombinant human CD40L [3] = target: T2, recombinant human CD40L (human, UniProt P29965 108-261, limits assumed); experiment: FACS ligand competition, biotinylated human CD40L on cyno CD40 HEK cells
T2 construct: Bought soluble recombinant protein (R&D, HEK, 6420-CL/CF); also called hCD40L; human CD40L (HEK, R&D)
T2 sequence: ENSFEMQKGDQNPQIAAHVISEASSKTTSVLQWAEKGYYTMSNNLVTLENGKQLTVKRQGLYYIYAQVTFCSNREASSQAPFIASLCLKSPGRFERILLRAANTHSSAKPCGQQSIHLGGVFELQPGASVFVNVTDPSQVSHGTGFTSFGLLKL
Method: Cross-reactivity to cynomolgus CD40L (UniProt accession number: G7PG38) and rhesus CD40L (UniProt accession number: G7N4M5) was tested in a ligand competition assay. […] 2×10⁵ cells (transiently transfected HEK cells) were incubated with dilution series of the purified Nanobodies in FACS buffer for 30 minutes at 4° C. Cells were then washed 3× and finally resuspended in FACS buffer containing Streptavidin-PE (BD Pharmingen, #554061). This mixture was incubated for 30 minutes at 4° C. Cells were further handled as set out above.

[4] = target: T1, human CD40L expressed on CHO cells; experiment: cell-based or functional assay; remark: listed apart in the source
recombinant human CD40L [5] = target: T2, recombinant human CD40L; experiment: FACS ligand competition, biotinylated human CD40L on rhesus CD40 HEK cells
recombinant human CD40L [6] = target: T2, recombinant human CD40L; experiment: FACS ligand competition, biotinylated human CD40L on human CD40 HEK cells
recombinant mouse CD40L = target: T3, recombinant mouse CD40L (mouse, UniProt P27548 112-260, limits assumed); experiment: SPR (ProteOn), immobilised recombinant mouse CD40L 3000-4000 RU; member of the lead panel
T3 construct: also called mouse CD40L (R&D NSO)
T3 sequence (looked up): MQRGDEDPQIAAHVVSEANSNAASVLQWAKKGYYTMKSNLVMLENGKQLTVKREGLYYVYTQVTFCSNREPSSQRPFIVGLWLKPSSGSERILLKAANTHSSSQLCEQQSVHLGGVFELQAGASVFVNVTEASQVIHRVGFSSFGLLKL
Method: To assess binding to mouse CD40L (UniProt accession number: P27548), ProteOn GLC Sensor Chips were coated with 3000-4000 RU of recombinant mouse CD40L (R&D NSO) in 10 mM acetate buffer pH5.5. Purified monovalent anti-CD40L Nanobodies in ProteOn running buffer: PBS/Tween (phosphate buffered saline, pH 7.4 with 0.005% Tween 20) were flown over the sensor chips at 100 nM. Processed curves were used for off-rate analysis based on the Langmuir dissociation model.

human TNFα = human TNFα (human, UniProt P01375 77-233); experiment: competition ELISA on coated human CD40L, fixed Nanobody, dilution series of competitor
Description: (§1) The Basic Local Alignment Search Tool (BLAST) was used to identify the closest related protein in the human protein database. […] A fixed concentration of Nanobody was used together with a dilution series of competitor (TNFα, HVEM-L (TNF14) and hRANKL (TN F11); CD40L was used as positive control), starting at a 100-fold excess. The Nano bodies were detected with anti-FLAG-HRP (Sigma (A8592)).

hRANKL (TNF11) = target: T4, hRANKL (TNF11) (human, UniProt O14788 140-317, limits assumed); experiment: as above
T4 sequence (looked up): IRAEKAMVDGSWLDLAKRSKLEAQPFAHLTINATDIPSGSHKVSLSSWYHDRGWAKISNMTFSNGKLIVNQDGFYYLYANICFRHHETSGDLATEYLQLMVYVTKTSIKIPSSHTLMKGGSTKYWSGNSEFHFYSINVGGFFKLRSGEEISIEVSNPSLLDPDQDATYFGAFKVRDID
Description: as §1

HVEM-L (TNF14) = HVEM-L (TNF14) (human, UniProt O43557 74-240, limits assumed); experiment: as above
Description: as §1

[7] = target: T5, rat CD40L on transiently transfected HEK cells (rat, UniProt Q9Z2V2 1-260); experiment: FACS on HEK cells transiently transfected with rat CD40L
T5 construct: whole, on cells
T5 sequence (looked up): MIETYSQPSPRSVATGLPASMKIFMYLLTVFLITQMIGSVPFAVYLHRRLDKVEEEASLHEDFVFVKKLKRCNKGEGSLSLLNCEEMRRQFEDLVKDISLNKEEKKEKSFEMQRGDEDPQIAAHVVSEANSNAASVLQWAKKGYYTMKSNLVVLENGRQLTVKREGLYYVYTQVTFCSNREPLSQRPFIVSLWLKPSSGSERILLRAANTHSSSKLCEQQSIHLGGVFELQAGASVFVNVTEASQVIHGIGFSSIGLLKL
Method: Cross-reactivity to rat CD40L (UniProt accession numbers: Q9Z2V2 and Q9R254 (secondary)) was tested in FACS. Purified Nanobodies were analyzed on FACS for binding to rat CD40L. 2×10⁵ cells (transiently transfected rat CD40L HEK cells) were incubated with the purified Nanobodies in FACS buffer for 30 minutes at 4° C. Cells were washed 3×, re-suspended and incubated for 30 minutes at 4° C. Cells were washed again 3× and dead cells were stained with TOPRO3 (Molecular probes, T3605). Samples were analyzed on a FACSarray™ (BD Biosciences).

recombinant human CD40L [8] = target: T2, recombinant human CD40L; experiment: SPR off-rate (ProteOn, 37 °C), immobilised recombinant human CD40L
Method: All off-rates were determined on a ProteOn XPR36 instrument (Bio-Rad Laboratories, Inc.). […] 10-fold diluted periplasmic extracts of anti-CD40L Nanobodies expressing E. coli clones in running buffer ProteOn PBS/Tween (phosphate buffered saline, pH7.4 with 0.005% Tween 20) were flown over the sensor chips. Purified monovalent anti-CD40L Nanobodies were flown over the sensor chips at 100 nM. […] Data obtained was double referenced by Interspot subtraction as well as subtraction of a blank buffer injection. Processed curves were used for off-rate analysis based on the Langmuir dissociation model.
Affinity maturation was performed by screening error prone libraries generated from each parental Nanobody clone. In this approach, amino acid substitutions result from random introduction of mutations in the Nanobody encoding DNA via an error prone PCR. As a consequence, amino acid substitutions are found both in the CDRs and in the Framework Regions (FRs). 5 rounds of phage display selections were performed in solution using decreasing concentrations of recombinant CD40L (from 50 nM to 0.05 pM). Following phage display, individual Nanobodies were sequenced and off-rates were determined by SPR analysis (cf. Example 6.1.3).

Chain of human TNFα (P01375 77-233 limits assumed): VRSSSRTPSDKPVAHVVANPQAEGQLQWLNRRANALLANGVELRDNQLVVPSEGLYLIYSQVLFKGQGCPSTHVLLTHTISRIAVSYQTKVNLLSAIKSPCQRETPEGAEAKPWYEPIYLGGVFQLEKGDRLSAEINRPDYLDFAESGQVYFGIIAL
Chain of HVEM-L (TNF14) (O43557 74-240 limits assumed): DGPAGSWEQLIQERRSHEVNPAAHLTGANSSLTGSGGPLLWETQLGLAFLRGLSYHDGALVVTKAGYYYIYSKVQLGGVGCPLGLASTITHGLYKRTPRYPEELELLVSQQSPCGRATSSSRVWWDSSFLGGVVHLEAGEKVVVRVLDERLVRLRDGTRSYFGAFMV

CDP7657 (non-pegylated) (Fab)
IC50 (pM), B-cell activation [1]: 101 pM | IC50 (pM), B-cell proliferation [1]: 864 pM

B1: C0100028B02 (VHH)
VHH: EVQLVESGGGLVQPGGSLRLSCAASGFTLEYYAIGWFRQAPGKEREGVSCISSEGSTSYTDSVKGRFTISRDNAKNTVYLQMNSLKPEDTAVYYCATDPDRGFLGSSCDTQSHQYDYWGQGTLVTVSS
notes: Monovalent Nanobody produced in P. pastoris (pAX205); Detected with anti-FLAG reagents, but the tag of the monovalent form is not spelled out; also called C01000028B02
Average IC50 (M), B-cell proliferation assay [2]: 1.15e-09 M | % block (maximum observed effect) (recombinant human CD40L [3]): 75% | IC50 (recombinant human CD40L [3]): 4.7 nM | IC50 (M), B-cell proliferation assay, +HSA [4]: 2.81e-09 M | % block (maximum observed effect) (recombinant human CD40L [5]): 72% | IC50 (recombinant human CD40L [5]): 4.55 nM | % block (maximum observed effect) (recombinant human CD40L [6]): 71% | IC50 (recombinant human CD40L [6]): 4.43 nM | binding result (recombinant mouse CD40L): no binding (tested: 100 nM) | binding result (human TNFα): no binding (tested: competitor from a 100-fold excess) | binding result (hRANKL (TNF11)): no binding (tested: competitor from a 100-fold excess) | binding result (HVEM-L (TNF14)): no binding (tested: competitor from a 100-fold excess) | binding result [7]: no binding

B2: C0100028B02 L100aF (VHH, name in Kabat numbering)
VHH: EVQLVESGGGLVQPGGSLRLSCAASGFTLEYYAIGWFRQAPGKEREGVSCISSEGSTSYTDSVKGRFTISRDNAKNTVYLQMNSLKPEDTAVYYCATDPDRGFFGSSCDTQSHQYDYWGQGTLVTVSS
fold improved off-rate over parental C0100028B02 (recombinant human CD40L [8]): 1.3 fold

B3: C0100028B02 D101G (VHH, name in Kabat numbering)
VHH: EVQLVESGGGLVQPGGSLRLSCAASGFTLEYYAIGWFRQAPGKEREGVSCISSEGSTSYTDSVKGRFTISRDNAKNTVYLQMNSLKPEDTAVYYCATDPDRGFLGSSCDTQSHQYGYWGQGTLVTVSS
fold improved off-rate over parental C0100028B02 (recombinant human CD40L [8]): 1.3 fold

B4: C0100028B02 Y102F (VHH, name in Kabat numbering)
VHH: EVQLVESGGGLVQPGGSLRLSCAASGFTLEYYAIGWFRQAPGKEREGVSCISSEGSTSYTDSVKGRFTISRDNAKNTVYLQMNSLKPEDTAVYYCATDPDRGFLGSSCDTQSHQYDFWGQGTLVTVSS
fold improved off-rate over parental C0100028B02 (recombinant human CD40L [8]): 1.8 fold

B5: C0100046B03 (VHH)
VHH: EVQLVESGGGLVQAGGSLRLSCAASGRTPLNYHMAWFRQAPGKEREFVAAISSLLGSTDYSDSLKDRFTISRDNAKATLYLRMNNLKPEDTAVYYCAARETTHYSTSDRVNEMRHYDYWGQGTLVTVSS
notes: Monovalent Nanobody; tag of the monovalent form not spelled out; also called C01000046B03
Average IC50 (M), B-cell proliferation assay [2]: 2.18e-09 M | % block (maximum observed effect) (recombinant human CD40L [3]): 97% | IC50 (recombinant human CD40L [3]): 22.7 nM | IC50 (M), B-cell proliferation assay, +HSA [4]: 2.38e-09 M | % block (maximum observed effect) (recombinant human CD40L [5]): 100% | IC50 (recombinant human CD40L [5]): 28.2 nM | % block (maximum observed effect) (recombinant human CD40L [6]): 96% | IC50 (recombinant human CD40L [6]): 15.3 nM | binding result (recombinant mouse CD40L): no binding (tested: 100 nM) | binding result (human TNFα): no binding (tested: competitor from a 100-fold excess) | binding result (hRANKL (TNF11)): no binding (tested: competitor from a 100-fold excess) | binding result (HVEM-L (TNF14)): no binding (tested: competitor from a 100-fold excess) | binding result [7]: no binding

B6: C0100046B03 H100kN (VHH, name in Kabat numbering)
VHH: EVQLVESGGGLVQAGGSLRLSCAASGRTPLNYHMAWFRQAPGKEREFVAAISSLLGSTDYSDSLKDRFTISRDNAKATLYLRMNNLKPEDTAVYYCAARETTHYSTSDRVNEMRNYDYWGQGTLVTVSS
notes: single mutation
fold improved off-rate over parental C0100046B03 (recombinant human CD40L [8]): 2.6 fold

B7: C0100046B03 H100kS (VHH, name in Kabat numbering)
VHH: EVQLVESGGGLVQAGGSLRLSCAASGRTPLNYHMAWFRQAPGKEREFVAAISSLLGSTDYSDSLKDRFTISRDNAKATLYLRMNNLKPEDTAVYYCAARETTHYSTSDRVNEMRSYDYWGQGTLVTVSS
fold improved off-rate over parental C0100046B03 (recombinant human CD40L [8]): ~2 fold

B8: C0100046B03 Y100I (VHH, name in Kabat numbering)
VHH: EVQLVESGGGLVQAGGSLRLSCAASGRTPLNYHMAWFRQAPGKEREFVAAISSLLGSTDYSDSLKDRFTISRDNAKATLYLRMNNLKPEDTAVYYCAARETTHISTSDRVNEMRHYDYWGQGTLVTVSS
fold improved off-rate over parental C0100046B03 (recombinant human CD40L [8]): 1.5 fold

B9: C0100046B03 H100kA (VHH, name in Kabat numbering)
VHH: EVQLVESGGGLVQAGGSLRLSCAASGRTPLNYHMAWFRQAPGKEREFVAAISSLLGSTDYSDSLKDRFTISRDNAKATLYLRMNNLKPEDTAVYYCAARETTHYSTSDRVNEMRAYDYWGQGTLVTVSS
fold improved off-rate over parental C0100046B03 (recombinant human CD40L [8]): ~2 fold

B10: C0100044B07 (VHH)
VHH: EVQLVESGGGLVQPGGRLRLSCAASGFTLDYYALAWFRQAPGKEREGVSCISSSEGSTDYADYADSVKGRFTISRDTAKNTVYLQMNNLKPEDTAVYYCATDETTFFSGSCTLSAATFGSWGQGTLVTVSS
notes: Monovalent Nanobody; tag of the monovalent form not spelled out; also called C01000044B07
Average IC50 (M), B-cell proliferation assay [2]: 9.71e-10 M | % block (maximum observed effect) (recombinant human CD40L [3]): 79% | IC50 (recombinant human CD40L [3]): 5.28 nM | IC50 (M), B-cell proliferation assay, +HSA [4]: 1.14e-09 M | % block (maximum observed effect) (recombinant human CD40L [5]): 83% | IC50 (recombinant human CD40L [5]): 5.41 nM | % block (maximum observed effect) (recombinant human CD40L [6]): 82% | IC50 (recombinant human CD40L [6]): 5.89 nM | binding result (recombinant mouse CD40L): no binding (tested: 100 nM) | binding result (human TNFα): no binding (tested: competitor from a 100-fold excess) | binding result (hRANKL (TNF11)): no binding (tested: competitor from a 100-fold excess) | binding result (HVEM-L (TNF14)): no binding (tested: competitor from a 100-fold excess) | binding result [7]: no binding

Reference: patent US20180355050A1 (Ablynx, published 2018)
